Laboratory results taken from a protein production outcome set (Wang et al. 2014).

Assay: label from the status in PepcDB records

| Sequence | protein production |
| --- | --- |
| MLAERRPAVTPTDGAQVLKALDAQAALLPYALGVFAVSLPLFVWVGSFAANPLWMTASFAIFAINWGVFYAAVSWIRDEPSQDLARRARVQVLCGVLWALAVMQISAFAHNAGPARETLLLLATAGAVLCAFFAAPYLPGLLIIAPLAAAGPLLAQFSSADSRHAGELTFGATALAMTLALILNRMFRRQHDLAISHEQLVVERLRVLEAAERTARSKSDIVATLSHEIRNGLTGVTHVLAAAAGRGGRAAPSREQLNAALDAAQDLIAVLNATLDSETAESGRLQVDARPFDPVRLVQDLALLDKPHAAAKGLELSVHVDPLLRERAKGAAIADALRTRQIVSNLLGNAVKYTVRGRVEVRLELRDDRIAIEVADTGPGLSTEELEQAFEPFRRVERTGAGVNGAGLGLSLSRQLARLMGGALEARSAVGVGSCFTLTLPFDLGAKDEQAEALDTAVAEASGAPRALRVLIAEDDALNAAMLRAVLEQLGHQVVHAANGRRAADLAKIAEFDLLMLDHRMPVMDGPEAASSLRQGDGPNRQTPIVAVIDGDAEEAAEFLEAGAEIVLRKPVSVAGVARALADAAALERTDPAKVAA | failed |
| MSQPLNVAVVGATGSVGEALVGLLDERDFPLHRLHLLASAESAGQRMGFAESSLRVGDVDSFDFSSVGLAFFAAAAEVSRAHAERARAAGCSVIDLSGALEPSVAPPVMVSVNAERLASQAAPFLLSSPCAVAAELCEVLAPLLATLDCRQLNLTACLSVSSLGREGVKELARQTAELLNARPLEPRLFDRQIAFNLLAQVGAVDAEGHSAIERRIFAEVQALLGERIGPLNVTCIQAPVFFGDSLSVTLQCAEPVDLAAVTRVLDATKGIEWVGEGDYPTVVGDALGQDETYVGRVRAGQADPCQVNLWIVSDNVRKGAALNAVLLGELLIKHYL | not failed |
| MSLKIAVTGGTGFLGQYVVESIKNDGNTPIILTRSIGNKAINDYEYRVSDYTLEDLINQLNDVDAVVHLAATRGSQGKISEFHDNEILTQNLYDACYENNISNIVYASTISAYSDETSLPWNEKELPLPDLMYGVSKLACEHIGNIYSRKKGLCIKNLRFAHLYGFNEKNNYMINRFFRQAFHGEQLTLHANSVAKREFLYAKDAAKSVIYALKQEKVSGTFNIGSGDALTNYEVANTINNAFGNKDNLLVKNPNANEGIHSSYMDSSKAKELLDFSTDYNFATAVEEIHLLMRGLDDVPLWYEGHHHHHH | not failed |
| MPAGCESNPRLVGHPFMTTILAIAVFGAVGCVARYLLAGGVYALAGRAFPWGTLAVNVIGAFLIGLIMEAALRTTLMSQELRLGLTIGFLGGFTTFSTFSYETFKLLEDGEFFSASLNVLASVALCLVGTWAGIMAARQL | failed |
| MLNALKNRLRVWYDPEMKAIARIIREMNSKGGDDLVVTECNKVFVDRLRVFPIALKMDFWEHHFELEGFSDFPEIGGDILDFGCGSGHLDVYLARRGFTVTGVDLSPVGIAIASFIRENEAADVKKRLLFFVADVTADLPPRQFDAAWSAHVFEHIKNPGPVLAGLKNWIKPGGSLLISVPFGRAYDDPGHVNHFYSEADLQHYLGGHISVERIKIYRDHQVIRALCKNDGDGKNDR | failed |
| GEGTDAIQALIQAYFTAWNTNAPERFAEIFWPDGSWVNVVGMHWRGRDQIVFAHTAFLKTIFKDCKQELVTIEARTIAPGSALAVVTLIQDAYVTPDGRQMPRAHDRLTLLAVEREGVWRFIHGHNTIVNPDAANNDPVLRMKPA | not failed |
| MEKLKSLIPEDLLQTVKSSSVDDLLSTSSSLLRLFLGLPQFHQAVSELANPELGCCGKNEETSLDLKRRGNHCFRSRDFDEALRLYSKALRVAPLDAIDGDKSLLASLFLNRANVLHNLGLLKESLRDCHRALRIDPYYAKAWYRRGKLNTLLGNYKDAFRDITVSMSLESSLVGKKQLQNELKAIPDYQNNQTLEHDEYRPSNDAGVDHLPSVQMEVKLRCVSTKEKGRGMVSECDIEEASVIHVEEPFSVVISKSCRETHCHFCLNELPADTVPCPSCSIPVYCSESCQIQSGGMLSTNEMDKHHIFQKLPDDIVEHIKGVTSADIYYFATDLIQEHQHECRGANWPAVLPSDAVLAGRIIMKLINQGKAATDLSNLQEILELSHTYSKMNPENKLELHLLSIVLIWCLSKSSCPNLSVCEASVTQTIILLSQIKVNSIAVARMKSSGDSFKCLPSGNISTKEPIQSLEQIRVGQALYKTGSLFNHSCKPNIHLYFLSRGLIMQTTEFVPTGCPLELSYGPEVGKWDCKNRIRFLEEEYFFHCRCRGCAQINISDLVINGYGCVNTNCTGVVLDSNVATCESEKLNHFFTAPRNVDQQVQMREKVYADVGEVASSLLSKPSGSLHIEPEICLKCGSRCDIENSHAEVNKAWNHMRRVEELMNSGRANYSVLSDCSRSIAVLRTFLHMYNKDIADAEDKVAQACYLAGELVDARKHCEASIKILKRLYEDEHVVIGNEMVKLASIQLASGDSSGAWDTTKRSSQIFSKYYGSHAETLFSYLPCLKQETAKAVNLSTS | failed |
| MQNPAGNPYNLDSFWFEQLMSHPSLNHAKMATRIQDETLEREVADLVISTLNLDVSPESVDPEAPLYREGLGLDSIDILEIALVVSKRYGFQLRADNEDNVRIFGSLRSLCQHIAANRVECLEHHHHHH | not failed |
| MNWVTHKPTFEFDNFSPFIRANTAWLGHLEFAYDLVRFEKPEILVELGTHMGASFFSFCQGVKDGGLATKCFAVDTWTGDGHTGPYGEGVFHIVDKVVKTSYPNIGNLIKSTFDEAVDQFQDGTINLLHIDGYHTYEAVSHDYKTWLPKLADNGIVLFHDIEVKDRNFGVYKFWDEVKAKYPHFQFQHSYGLGVLFPKGCSDRFKEILKNKEEIQDMYKLEHHHHHH | not failed |
| MMKVLLLEDVKNLGKAGEVCEVKDGYGNNFLIANQKAKLATNEVINKYKAEVKKKAEKEALEKAQKLQMVETLQTITLTIHKKVGANGSLFGAITKEEITERLKEQHASLNLDKKDIELKHPIKSTGIYEIEVKLGSGVVGVFKIDVVAE | failed |
| MEATNLPQPSAPADLGALQRPSYFRRLGPFDWLFAALLALGAGYAFSRYGAYMDGYERGILVAAVPAFAWLGWTWKPVRTLMIGLAVLSLFAIAQYSGPNGPELARADRVFFLKYFLASQSAILWMSALIFLSTLFFWAGLAARWPAGGAIGSKLCWAAVVLGLTGMLVRWYESYLVGADIGHIPISNLYEVFILFTLITSLFYLYYEQRYRTRALGPFVMLVVSAAVGFLLWYTVSRGAQEIQPLVPALQSWWMKIHVPANFIGYGTFALAAMVGAAYLLKEHGVLADRLPSLEVLDDVMYKAITVGFAFFTIATILGALWAADAWGGYWSWDPKETWALIVWLNYAAWLHMRLMKGLRGRMAAWWALVGLLVTTFAFLGVNMFLSGLHSYGEL | failed |
| AQNQDCAFFFPNQEGEQITRNCYTADGKLTNILVYRVDQAYEYPSGMEVVANYTFADAAGKTLNSGQMVARCSDGNFSMSMGDVATFPTALNMMNADVYMMGDLMNYPDAFSNPMNPGDDDEFDDGTLRLYQKGNKNNRAEISVFDREFVTTETVNTPAGAFYCTKVKYEMNIWTPKETIKGYGYEWYAPNIGIVRSEQYNNKKELQSYSVLERIKK | not failed |
| MEEKVEELIDIYKQQIYSLCYKLAKTKEDAEDIFQETWIKVFSSRHQLSYVENYKKWITTICVRTFYDFYSKKKRWKDRVLDLFHKEDGGEIEFADDVNISEEFIQKVEAEMIREVIQLLNEKYKTVLVLYYYEQYSYKEMSEILNIPIGTVKYRLNYAKKQMREHLEGFVHEGR | failed |
| MRILLVGAGGFVGRHLLPALLAAGHELLLTARRPPVDAPAGVRWLALDLERLAERPDSFAWPAGVDLLINAAGTMSLDEASMARVQDSGARTLFDLAAAHGAKVLQISALGAGAHPDVAFLASKAAADRHLLELGIPALVLRPSLLLGPGGASSAWLERLSPLPLIPLLDNRARLQPLHVEDLVGAVLALLRCWPERAQVIPLVGPQALTQGELLDELRRAQGWPRGRYVVPPAALLDALGGLGRRAGWRTLSPSMLKLVRHDNLADPALLDEACGYRCAPLASRLLGWPQAARSLAALMRPLMLAALVLIWLGTLVACLGPGYGWGLRILGEAGIHGWPASLAVIAGALLDGALGVGLLLRRWRRRALLAQFWLMLGYSLAISLILPHYWYDPYMAVGKNIVLMVATLWLLGDEPRTREARG | failed |
| EKIWPRDRSASRERSLSPRSDRRSVASSQPAKPTKVTLVKSRKNEEYGLRLASHIFVKEISQDSLAARDGNIQEGDVVLKINGTVTENMSLTDAKTLIERSKGKLKMVVQRDERATLLNVPDLSDSIHSANASERDDISEIQSLASDH | failed |
| MYPVDLHMHTVASTHAYSTLSDYIAQAKQKGIKLFAITDHGPDMEDAPHHWHFINMRIWPRVVDGVGILRGIEANIKNVDGEIDCSGKMFDSLDLIIAGFHEPVFAPHDKATNTQAMIATIASGNVHIISHPGNPKYEIDVKAVAEAAAKHQVALEINNSSFLHSRKGSEDNCREVAAAVRDAGGWVALGSDSHTAFTMGEFEECLKILDAVDFPPERILNVSPRRLLNFLESRGMAPIAEFADL | not failed |
| MPSSILSESMIQAFFWSLITIGMYFITQKLYRRWPFWWLMPLALTPILVASVVLLLHVNYQDYFRGTKWLVLLIGPATVAFAIPIYEKRALIRQHWPVLLIGVIVGSFTAIASSWGLAILLGLDDNLRLSLLPRSISTPFAIEISRGIGAAPDLTAIFVIVTGILGAILGEFILSRLPFNSALARGALLGVGAHAAGTAQAHKIGNTEGAIASLAMILVGLFNILLLPLISYLLK | failed |
| MKLTIIRLENFSDQDRIDLQKIWPEYSPSSLQVDDNYRIYAARFNERLLAAVRVTLSGTEGALDSLRVREVTRRRGVGQYLLEEVLRNNPDVSCWWMADAGVEDRGVMTAFMRALGFTAQQGGWEKH | failed |
| MSIFTAAMIALVYWISQAKVWYGFSIMRMPLSIAPIMGLIFNDMPTALSVGATLQMIYIGSIAPGGNPPADEGLASCIAIPIALTAGIKPEIAISLAIPLGLLGVVLENVRKTLNTTFIHMADRYAEKGDIKGIQRAATIYPLLLAFPMRFVPVFIACLYGPDAIASFVNLLPAWSTNGLAIAGNILPALGFAITIIVIGKKQYIPLFIIGFFLVTYSGLNTIGISIFGLCAVLLYMQSQNTKGTKNG | failed |
| TLPPRGRLRIDVPLALAHAILIPNLKHFQSLYPDIDVILVSSDKKTDLISEGVDCLVRLGELQDSSFISRRLGDIRMVTCAAPSYLQQYGRPETLADLDQHRAINFFSDHSRDVMEWKFTKDGKIVSLRPVGSMLVDNSDILL | failed |
| MSLEESLEQLKRQYLHALPDKKKQIITLWVSLRKNWQSYMLSAVYREVHNLKGSSETFGLTETKDIVDKLELQLKNLLDAPAPTLNLIKGLDTLFHQLLQNNQHYLPAAPVVEAQMQQNPYNPSKARHEYCIAIIEDDNNVGAMITKQLHEFGFNVQHFLNFTDFIKVQYASPFDLILLDLILPDYTEDALFEAACEFEKNNTRVFVLSSRSDFDMRLLAIRANVSEYFVKPAETTLLVRKIHQWLKMSDKPPLKVLLVDDQQSMVDYFSSLLRSHGLMVRGMTKPEQVIPTLEQFEPDLFIFDLYMPGVNGLELARMIRQLDKYTSSPILVLSSDDTMQNKVSIIQAGSDDLISKQTAPSLFVTQVISRAQRGHDIRSSASRDSLTGLLNHTQILVAARHCINLAKRANSSVCIAMLDLDHFKQVNDTYGHSGGDKVLLAFAHLLQQSLRAADFMGRYGGEEFMLVIPDMPAPLVIAKVNAIRESFSNIVFVEEGAEFKVTLSGGLAFSTECHEFQECLLLADKNLYEAKRTGRNRIINTLVK | failed |
| MSDRLGIFFSGLCFVHCLATPILLIFLGTNSLASVLETPLFHRLLLLPVLTMAIFQGYYAWKNPQAKLSRVLLPLGCLAVVIAQFFHGPIEILLTIIGSLTLISGHFFHLKHEHCADQN | failed |
| MDNLTHYLATTLRTLRHQRGWSLSRLAEISGVSKAMLGQIERNESSPTVATLWKIATGLNVPFSVFISPPQAEFPPTFDPQQQAMVITPLFPWDPELCFDYFSLLLAPGTVSESTPHKAGVIEHVVVIQGRLDMCTGGVWQTIDAGKGLRFAGDTAHTYRNSSDQTVHFHSLIHYPRD | failed |
